B1: full-length CLMB (76 residues) expressed in E. coli (natural protein)
chain: MGLKMSCLKGFQMCVSSSSSSHDEAPVLNDKHLDVPDIIITPPTPTGMMLPRDLGSTVWLDETGSCPDDGEIDPEA
modifications: uniformly ^15N-labeled in the NMR titrations; not phosphorylated

Columns and labels:
[1] = biological target: T1, purified, catalytically inactive CNA/B containing CNA_(Trunc+H151Q) (UniProt Q08209 1-391; P63098 1-170, H151Q); assay: NMR titration
[2] = biological target: T1, purified, catalytically inactive CNA/B …; assay: fluorescence polarisation
Target sequence in this assay (Q08209 1-391 H151Q, chain 1 of 2): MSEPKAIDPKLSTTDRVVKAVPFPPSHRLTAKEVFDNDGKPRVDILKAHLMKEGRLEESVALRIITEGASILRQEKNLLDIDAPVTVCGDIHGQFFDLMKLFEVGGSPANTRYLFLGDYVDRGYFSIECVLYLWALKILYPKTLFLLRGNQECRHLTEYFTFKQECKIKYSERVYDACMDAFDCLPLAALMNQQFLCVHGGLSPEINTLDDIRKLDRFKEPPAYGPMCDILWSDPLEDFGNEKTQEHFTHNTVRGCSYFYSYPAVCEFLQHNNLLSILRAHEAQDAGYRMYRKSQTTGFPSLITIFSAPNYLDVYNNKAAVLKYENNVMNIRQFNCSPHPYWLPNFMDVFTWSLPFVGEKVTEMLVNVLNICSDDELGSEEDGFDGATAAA
Target sequence in this assay (P63098 whole entry, chain 2 of 2): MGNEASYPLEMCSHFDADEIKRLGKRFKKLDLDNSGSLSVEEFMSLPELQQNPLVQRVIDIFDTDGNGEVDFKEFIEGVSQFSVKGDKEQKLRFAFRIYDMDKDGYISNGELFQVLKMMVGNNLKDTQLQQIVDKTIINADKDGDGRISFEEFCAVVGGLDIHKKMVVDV

Row | Binder | binding result [1] | binding result [2]
1 | B1 | binds | 
2 | SHDEAPVLNDKHADAPDIIITPPTPTGMML (phosphothreonine at 44) [pCLMB_(LxVMut) peptide (residues 21-50, pThr44), unlabeled] |  | binds
3 | SHDEAPVLNDKHLDVPDIIITPPTPTGMML [CLMBWT peptide (residues 21-50), not phosphorylated, unlabeled] |  | binds

— publication PMC12612047 (Nature Communications, 2025)
